Test results from patent US20240342310A1 (UNIVERSITY OF VIRGINIA PATENT FOUNDATION, published 2024).

Molecular target: T1, fibronectin leucine rich transmembrane protein 3 (FLRT3) (UniProt Q9NZU0 29-649, limits assumed)
T1 sequence (looked up): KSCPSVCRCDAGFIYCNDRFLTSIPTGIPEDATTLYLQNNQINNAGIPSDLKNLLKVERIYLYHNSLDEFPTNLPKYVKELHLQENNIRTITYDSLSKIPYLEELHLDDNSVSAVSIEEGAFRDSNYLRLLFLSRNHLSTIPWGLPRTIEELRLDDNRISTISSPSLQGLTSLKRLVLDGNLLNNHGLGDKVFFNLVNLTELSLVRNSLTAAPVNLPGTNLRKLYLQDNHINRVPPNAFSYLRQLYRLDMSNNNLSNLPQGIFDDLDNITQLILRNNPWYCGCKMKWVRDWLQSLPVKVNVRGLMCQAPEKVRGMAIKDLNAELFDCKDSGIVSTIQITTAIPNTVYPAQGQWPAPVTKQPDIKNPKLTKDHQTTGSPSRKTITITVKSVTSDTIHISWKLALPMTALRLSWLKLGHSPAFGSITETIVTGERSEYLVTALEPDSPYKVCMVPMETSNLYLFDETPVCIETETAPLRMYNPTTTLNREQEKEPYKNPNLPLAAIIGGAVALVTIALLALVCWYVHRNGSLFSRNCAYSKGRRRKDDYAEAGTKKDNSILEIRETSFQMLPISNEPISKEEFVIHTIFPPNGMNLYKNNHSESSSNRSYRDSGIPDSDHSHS
Test: co-immunoprecipitation (data not shown)

binding result: no binding
B1: circCCDC7-180aa (other)
chain: MQVGNSQTKVKGEDSKNIPLEKETRKSLVSDSGGQRTSDKIQEYPQITAQSGRLIEKSSEKKRSSPAISDLSQILKSQDESAFLESSNEVSVAENQSYKSPSETHDKSLTTVSSSKEVQDSLSVGTLAQKNETVISPFILPPVLTESKKADVSEEQLQKMTEEQTYQAAEKSQESSTSGN
notes: All other experiments on the protein used the C-terminally 3xFLAG-tagged form expressed from plenti-ciR-GFP-T2A; also called 180aa protein encoded by circCCDC7(15, 16, 17, 18, 19); CCDC719-15 encoded protein; not shown: 3xFLAG tag inserted just before the stop codon in the expression construct
